The record followed here is article PMC8698333.

Assay [1] addresses human kappa opioid receptor fused to the alpha7 nicotinic signal peptide and eGFP (pcDNA3.1) (human) (UniProt P41145).
Assay [2] deals with human kappa opioid receptor Tango construct (tTA-hKOR) (human) (UniProt P41145).
Assay [3] concerns the target human kappa opioid receptor, stably expressed in CHO cells (hKOR-CHO) (human) (UniProt P41145).

Chain of human kappa opioid receptor fused to the alpha7 nicotinic signal peptide and eGFP (pcDNA3.1) (human) (P41145 whole entry, the tested form may be a part): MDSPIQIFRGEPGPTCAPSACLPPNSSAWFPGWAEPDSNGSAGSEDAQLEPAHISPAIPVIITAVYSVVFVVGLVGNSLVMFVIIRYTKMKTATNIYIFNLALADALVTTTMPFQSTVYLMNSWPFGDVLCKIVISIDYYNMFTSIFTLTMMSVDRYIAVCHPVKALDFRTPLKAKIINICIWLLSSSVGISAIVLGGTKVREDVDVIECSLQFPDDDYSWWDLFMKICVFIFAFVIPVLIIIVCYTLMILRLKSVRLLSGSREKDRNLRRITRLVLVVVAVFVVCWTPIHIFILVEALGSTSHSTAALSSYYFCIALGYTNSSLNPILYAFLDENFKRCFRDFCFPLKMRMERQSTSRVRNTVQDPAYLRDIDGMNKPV
Chain of human kappa opioid receptor Tango construct (tTA-hKOR) (human) (P41145 whole entry): as the sequence (P41145 whole entry, the tested form may be a part) above
Chain of human kappa opioid receptor, stably expressed in CHO cells (hKOR-CHO) (human) (P41145 whole entry): as the sequence (P41145 whole entry, the tested form may be a part) above

Dynorphin A L5S mutant peptide: the TRUPATH (BRET) G-protein dissociation, Gα3 subunit: fold shift of EC50 against the mean of same day DynA WT controls in assay [1] is 7 fold shift. In addition, in assay [2], the PRESTO-Tango β-arrestin recruitment: fold shift of EC50 against the mean of same day DynA WT controls was found to be 13 fold shift.

In assay [3], Dynorphin A R6W mutant peptide came in with an EC50 of [35S]GTPγS binding to hKOR-CHO cell membranes (G-protein activation) of 105 nM and an efficacy (maximal [35S]GTPγS binding to hKOR-CHO cell membranes) of 1240 CPM. Further, the TRUPATH (BRET) G-protein dissociation, Gα3 subunit: fold shift of EC50 against the mean of same day DynA WT controls in assay [1] came to 11 fold shift. Moreover, in assay [2], the PRESTO-Tango β-arrestin recruitment: fold shift of EC50 against the mean of same day DynA WT controls is 16 fold shift.

With Dynorphin A R9C mutant peptide, the TRUPATH (BRET) G-protein dissociation, Gα3 subunit: fold shift of EC50 against the mean of same day DynA WT controls in assay [1] was determined as 3 fold shift. The PRESTO-Tango β-arrestin recruitment: fold shift of EC50 against the mean of same day DynA WT controls in assay [2] amounted to 5 fold shift.
